Five molecules from publication doi:10.1101/2024.07.10.602929 (bioRxiv, 2024) can be followed below.

What all share (assay): BLI; Octet Red 96; N-terminally biotinylated peptides immobilised on High Precision Streptavidin (SAX) biosensors; purified hATG8 proteins as analyte in increasing concentrations; steady-state evaluation, one-site binding model; individual measurements unless stated otherwise
What all share (conditions): both partners purified

For one experiment, the target named is T1, GABARAPL1 Y49A/L50A (human, UniProt Q9H0R8 1-117, Y49A | L50A).
T1 construct: GABARAPL1, human, full-length (unprocessed) version with Y49A and L50A; everywhere else Y49A/L50A; also called GABARAPL1_(Y49A/L59A); source: E. coli BL21(DE3), pGEX-4-T2, purified (Glutathione Sepharose 4B, thrombin cleavage, SEC)

Experiment [1] has as its target T2, GABARAP (γ-aminobutyric acid type A receptor-associated protein) (human, UniProt O95166 1-117).
T2 construct: GABARAP, human, full-length (unprocessed) version; For the NMR titrations the same construct was made 15N-labelled in M9 minimal medium; also called 15N-GABARAP; free GABARAP; source: E. coli BL21(DE3), pGEX-4-T2, purified (Glutathione Sepharose 4B, thrombin cleavage, SEC)

Another experiment has as its target T3, GABARAP Y49A/L50A (human, UniProt O95166 1-117, Y49A | L50A).
T3 construct: GABARAP, human, full-length (unprocessed) version with Y49A and L50A; source: E. coli BL21(DE3), pGEX-4-T2, purified (Glutathione Sepharose 4B, thrombin cleavage, SEC)

For a further experiment, the target named is T4, GABARAPL1 (human, UniProt Q9H0R8 1-117).
T4 construct: GABARAPL1, human, full-length (unprocessed) version; source: E. coli BL21(DE3), pGEX-4-T2, purified (Glutathione Sepharose 4B, thrombin cleavage, SEC)

The next experiment has as its target T5, GABARAPL2 (human, UniProt P60520 1-117).
T5 construct: GABARAPL2, human, full-length (unprocessed) version; source: E. coli BL21(DE3), pGEX-4-T2, purified (Glutathione Sepharose 4B, thrombin cleavage, SEC)

A further experiment addresses T6, LC3A (human, UniProt Q9H492 1-121).
T6 construct: LC3A, human, full-length (unprocessed) version; also called MAP1LC3 (microtubule-associated protein 1 light chain 3) A; source: E. coli BL21(DE3), pGEX-4-T2, purified (Glutathione Sepharose 4B, thrombin cleavage, SEC)

Broadly, the Kd is the constant that tells how readily two partners part at equilibrium. A low value points to tighter binding.

Where no end group is shown, it is not given here. [ ]: non-standard residue; d: D form. The star is where a group is joined. Biotin = O=C1N[C@H]2[C@H](CS[C@H]2CCCCC(=O)*)N1; pY = N[C@@H](Cc1ccc(OP(=O)(O)O)cc1)C(=O)O

T5 sequence (P60520 whole entry): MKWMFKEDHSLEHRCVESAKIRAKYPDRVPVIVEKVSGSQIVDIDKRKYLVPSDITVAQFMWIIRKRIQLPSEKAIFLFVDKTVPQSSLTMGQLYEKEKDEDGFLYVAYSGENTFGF
T2 sequence (O95166 whole entry): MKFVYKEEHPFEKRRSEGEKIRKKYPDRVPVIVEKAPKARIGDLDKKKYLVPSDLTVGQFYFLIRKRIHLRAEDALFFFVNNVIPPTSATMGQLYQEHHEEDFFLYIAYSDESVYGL
T3 sequence (O95166 whole entry Y49A/L50A): as the sequence (O95166 whole entry) above, with Y49A, L50A counted along it
T1 sequence (Q9H0R8 whole entry Y49A/L50A): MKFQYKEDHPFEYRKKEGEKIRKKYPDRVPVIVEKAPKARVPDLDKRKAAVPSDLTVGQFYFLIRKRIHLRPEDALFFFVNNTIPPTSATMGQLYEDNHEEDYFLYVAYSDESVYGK

B1: PCM1 LIR peptide (pericentriolar material 1 protein residues 1954-1968), N-terminally biotinylated (peptide, UniProt Q15154 1954-1968, looked up)
peptide: Biotin-ISQKSDEEDFVKVED
notes: Pericentriolar material 1 protein (PCM1), LIR motif, residues 1954-1968; source: synthetic peptide, bought: CASLO (≥95% purity)
For the molecule B1, the Kd worked out at 273 µM with GABARAPL1 Y49A/L50A, 4.2 µM in experiment [1] and 99.2 µM with GABARAP Y49A/L50A.

B2: EGFR LIR1 peptide (EGFR residues 1076–1099), N-terminally biotinylated (peptide)
peptide: Biotin-ALTEDSIDDTFLPVPEYINQSVPK
notes: Epidermal growth factor receptor (EGFR), residues 1076-1099 of the regulatory C-terminal domain, core LIR FLPV at 1086-1089; also called EGFR LIR1_(1076–1099); source: synthetic peptide, bought: CASLO (≥95% purity)
B2 returned a Kd in the experiment with GABARAPL1 of 29.7 µM.

B3: EGFR LIR2 peptide phosphorylated at Y1197 (peptide, UniProt P00533 1190-1210, looked up)
peptide: Biotin-STAENAE[pY]LRVAPQSSEFIGA
notes: EGFR residues 1190-1210 (LIR2); also called LIR2 pY1197; source: synthetic peptide, bought: CASLO (≥95% purity)
Turning to B3, the binding result (with GABARAPL2; in experiment [1]; with GABARAPL1; with LC3A) was “binds” in each case.

B4: EGFR LIR2 peptide (EGFR residues 1190–1210), N-terminally biotinylated (peptide, UniProt P00533 1190-1210, looked up)
peptide: Biotin-STAENAEYLRVAPQSSEFIGA
notes: Epidermal growth factor receptor (EGFR), residues 1190-1210, core LIR YLRV at 1197-1200; source: synthetic peptide, bought: CASLO (≥95% purity)
Regarding B4, the binding result with GABARAPL2, with GABARAPL1 and in the experiment with LC3A was “binds” throughout.

B5: EGFR LIR1 peptide phosphorylated at Y1092 (peptide, UniProt P00533 1076-1099, looked up)
peptide: Biotin-ALTEDSIDDTFLPVPE[pY]INQSVPK
notes: EGFR residues 1076-1099 (LIR1); also called phosphorylated (p) EGFR LIR1 variant pY1092; source: synthetic peptide, bought: CASLO (≥95% purity)
For the molecule B5, the binding result with GABARAPL2 and with LC3A was “binds” throughout.
